Consider one molecule from patent publication US20160017037A1 (GlaxoSmithKline, published 2016).

The target of the experiment is T1, Fc-tagged recombinant soluble LAG-3 (IMP321) (human, UniProt P18627 23-434).
T1 construct: also called LAG3-Ig molecule IMP321; recombinant sLAG-3; not shown: Fc / Ig part
T1 sequence (looked up): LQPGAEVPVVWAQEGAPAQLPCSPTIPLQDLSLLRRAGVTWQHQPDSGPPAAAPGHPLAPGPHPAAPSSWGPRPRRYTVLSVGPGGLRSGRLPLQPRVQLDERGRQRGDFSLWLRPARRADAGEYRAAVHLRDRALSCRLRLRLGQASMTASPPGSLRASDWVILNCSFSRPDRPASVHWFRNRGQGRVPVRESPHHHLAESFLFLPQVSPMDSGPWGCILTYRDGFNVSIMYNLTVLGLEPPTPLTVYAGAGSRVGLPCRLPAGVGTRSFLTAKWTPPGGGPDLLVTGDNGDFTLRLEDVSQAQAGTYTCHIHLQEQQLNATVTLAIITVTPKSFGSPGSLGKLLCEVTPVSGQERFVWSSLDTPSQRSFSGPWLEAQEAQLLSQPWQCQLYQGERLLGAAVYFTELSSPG
Put plainly: SPR Biacore 3000, off-rate comparison with IMP731, IMP321 analyte at 64 nM. The method, then: The binding kinetics of the purified antibodies for a sLAG-3 molecule were assessed by SPR using a Biacore™ 3000. A goat anti-human kappa antibody (Southern Biotech, Catalogue No. 2060-01) was immobilised on a CM5 chip by primary amine coupling. Humanised anti-LAG3 antibodies were captured on this surface and the LAG3-Ig molecule IMP321 (Chrystelle Brignone, Caroline Grygar, Manon Marcu, Knut Schakel, Frederic Triebel, The Journal of Immunology, 2007, 179: 4202-4211) used as the analyte at 64 nM with a buffer injection (i.e. 0 nM) used to double reference the binding curves. Regeneration was with 10 mM Glycine, pH1.5. The run was carried out on the Biacore™ 3000, using HBS-EP as running buffer and at 25° C. Sensorgrams were normalised for binding at maximal association and off-rates compared against IMP731 by visual inspection of the sensorgram profiles.

B1: H5L7 (antibody, human IgG1, kappa)
heavy: not shown
light: DIQMTQSPSSLSASVGDRVTITCKSSQSLLNPSNQKNYLAWYQQKPGKAPKLLVYFASTRDSGVPSRFSGSGSGTDFTLTISSLQPEDFATYYCLQHFGTPPTFGQGTKLEIKRTVAAPSVFIFPPSDEQLKSGTASVVCLLNNFYPREAKVQWKVDNALQSGNSQESVTEQDSKDSTYSLSSTLTLSKADYEKHKVYACEVTHQGLSSPVTKSFNRGEC
notes: Humanised IgG1/kappa of A9H12 (IMP731); also called fucosylated H5L7; non-ADCC enhanced variant H5L7
In the case of B1, the “Rank order of off-rates” value was determined as 1.
